Source: US20190185561A1 (Seagen, published 2019)
Values belong to the molecule of their own block, whether it stands above or below them.

Key:
[1] = molecular target: murine CD47 on murine CD47 positive tumor cells (mouse) (UniProt Q61735); experiment: saturation binding by flow cytometry on HT-2 (mouse T cells)
[2] = molecular target: murine CD47 on murine CD47 positive tumor cells (mouse) (UniProt Q61735); experiment: saturation binding by flow cytometry on HT-2 (mouse T cells); range printed beside the two rising curves (mIAP and Cleaved Vel), lower end
[3] = molecular target: murine CD47 on murine CD47 positive tumor cells (mouse) (UniProt Q61735); experiment: saturation binding by flow cytometry on HT-2 (mouse T cells); range printed beside the two rising curves (mIAP and Cleaved Vel), upper end
[4] = molecular target: T1, human CD47 expressed on the cell surface (human, UniProt Q08722 19-323); experiment: saturating cellular FACS on L450cy lymphoma cells
T1 construct: whole, on cells; also called CD47 on SW780, human red blood cells, HT1080, HCT116, Raji, L450cy and patient blood cells

[5] = molecular target: T2, Soluble recombinant human CD47-Fc (R&D Systems) (human, UniProt Q08722 19-139); experiment: hCD47 ELISA, absorbance at 450 nm against antibody concentration
T2 construct: Bought reagent; also called rhCD47; human CD47 (plate-coated); not shown: Fc part of the bought fusion protein

[6] = molecular target: T2, Soluble recombinant human CD47-Fc (R&D …); experiment: saturating ELISA on plates coated with human CD47; column head 'Average EC50 (nM)'
[7] = molecular target: T1, human CD47 expressed on the cell surface; experiment: saturation binding, flow cytometry, SW780 cells
[8] = molecular target: T2, Soluble recombinant human CD47-Fc (R&D …); experiment: saturation binding ELISA on rhCD47
[9] = molecular target: T1, human CD47 expressed on the cell surface; experiment: saturation binding, flow cytometry, Raji cells
[10] = molecular target: T1, human CD47 expressed on the cell surface; experiment: saturation binding, flow cytometry, SW780 cells; remark: listed apart in the source
[11] = molecular target: T1, human CD47 expressed on the cell surface; experiment: saturation binding, flow cytometry, SW780 cells; remark: listed apart in the source
[12] = molecular target: T1, human CD47 expressed on the cell surface; experiment: saturation binding, flow cytometry, SW780 cells; remark: listed apart in the source
[13] = molecular target: T1, human CD47 expressed on the cell surface; experiment: saturation binding, flow cytometry, HCT116 cells
[14] = molecular target: T1, human CD47 expressed on the cell surface; experiment: saturation binding, flow cytometry, HT1080 cells
[15] = molecular target: T1, human CD47 expressed on the cell surface; experiment: saturation binding, flow cytometry, human red blood cells
[16] = molecular target: T1, human CD47 expressed on the cell surface; experiment: as above; remark: listed apart in the source
[17] = molecular target: T1, human CD47 expressed on the cell surface; experiment: saturation binding, flow cytometry, SW780 cells; SW780 human bladder cancer cells

murine CD47 on murine CD47 positive tumor cells (mouse), sequence (Q61735 19-303): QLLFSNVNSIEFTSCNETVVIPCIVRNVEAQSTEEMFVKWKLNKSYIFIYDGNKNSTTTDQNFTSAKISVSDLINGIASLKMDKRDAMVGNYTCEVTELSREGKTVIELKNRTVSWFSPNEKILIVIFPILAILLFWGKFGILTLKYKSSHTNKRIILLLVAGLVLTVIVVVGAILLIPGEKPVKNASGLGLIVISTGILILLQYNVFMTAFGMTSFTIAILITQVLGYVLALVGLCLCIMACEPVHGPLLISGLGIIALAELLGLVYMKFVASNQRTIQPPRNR

EC50 (read off the curve) [1]: 10 to 20 nM
Kd [2]: > 7.5 nM
Kd [3]: < 15 nM
Molecule: mIAP301 (antibody)

Kd [4]: 0.9 nM
EC50 (read off the curve) [5]: ~1 nM
EC50 [6]: 24 nM
B1: hB6H12.4 (antibody, V domains shown)
VH: EVQLLESGGGLVQPGGSLRLSCAASGFTFSGYGMSWVRQAPGKRLEWVATITSGGTYTYYPDSVKGRFTISRDNSKNTLYLQMNSLRAEDTAIYFCARSLAGNAMDYWGQGTLVTVSS
VL: DIQMTQSPSSLSASVGDRVTLTCRASQTISNYLAWYQQKPGKVPKLLIKFASTLQSGVPSRFSGSGSGSDFTLTISSLQPEDVATYYCQNGHGFPRTFGQGTKLEIKR
notes: also called hvH1/hvK4; antibody 4 (bin A)

Kd [7]: 9.2 nM
B2: Cleaved Vel-IPV-hB6H12.4 (antibody, V domains shown)
VH: EVQLLESGGGLVQPGGSLRLSCAASGFTFSGYGMSWVRQAPGKRLEWVATITSGGTYTYYPDSVKGRFTISRDNSKNTLYLQMNSLRAEDTAIYFCARSLAGNAMDYWGQGTLVTVSS
VL: DIQMTQSPSSLSASVGDRVTLTCRASQTISNYLAWYQQKPGKVPKLLIKFASTLQSGVPSRFSGSGSGSDFTLTISSLQPEDVATYYCQNGHGFPRTFGQGTKLEIKR
notes: MMP2-cleaved; IgG1

Kd [4]: 0.9 nM
EC50 [6]: 30 nM
B3: hB6H12.2 (antibody, V domains shown)
VH: EVQLLESGGGLVQPGGSLRLSCAASGFTFSGYGMSWVRQAPGKRLEWVATITSGGTYTYYPDSVKGRFTISRDNSKNTLYLQMNSLRAEDTAIYFCARSLAGNAMDYWGQGTLVTVSS
VL: EIVMTQSPDFQSVTPKEKVTLTCRASQTISDYLHWYQQKPDQSPKLLIKFASQSISGVPSRFSGSGSGTDFTLTINSLEAEDAATYYCQNGHGFPRTFGQGTKLEIKR
notes: also called hvH1/hvK2; antibody 2 (bin A)

Kd [8]: 1 nM
Kd [9]: 3.3 nM
Kd [10]: 8 nM
Kd [11]: 6.8 nM
Kd [12]: 9.6 nM
Kd [13]: 7.8 nM
Kd [14]: 21 nM
Kd [4]: 0.5 nM
Kd [15]: 26.5 nM
Kd [16]: 12.1 nM
EC50 (read off the curve) [5]: ~1 nM
EC50 [6]: 16 nM
B4: Ab47 (antibody, V domains shown)
VH: EVQLVESGGGLVQPGGSLRLSCAASGFTFSGYGMSWVRQAPGKGLEWVATITSGGTYTYYPDSVKGRFTISRDNAKNSLYLQMNSLRAEDTAVYYCARSLAGNAMDYWGQGTLVTVSS
VL: EIVLTQSPATLSLSPGERATLSCRASQTISDYLHWYQQKPGQAPRLLIKFASQSISGIPARFSGSGSGTDFTLTISSLEPEDFAVYYCQNGHGFPRTFGQGTKVEIKR
notes: Humanized IgG1; also called alternatively humanized antibody Ab47; humanized IgG1 hB6H12 Ab47

Kd [4]: 1 nM
EC50 [6]: 43 nM
B5: hB6H12.17 (antibody, V domains shown)
VH: EVQLVESGGGLVQPGGSLRLSCAASGFTFSGYGMSWVRQAPGKGLEWVATITSGGTYTYYADSVKGRFTISRDNSKNTLYLQINSLRAEDTAVYYCARSLAGNAMDYWGQGTLVTVSS
VL: EIVMTQSPDFQSVTPKEKVTLTCRASQTISDYLHWYQQKPDQSPKLLIKFASQSISGVPSRFSGSGSGTDFTLTINSLEAEDAAVYYCQNGHGFPRTFGQGTKLEIKR
notes: also called hvH5/hvK1; antibody 17 (bin B)

Kd [7]: 30.2 nM
B6: Cleaved Vel-IPV-hB6H12.20 (antibody, V domains shown)
VH: EVQLVESGGGLVQPGGSLRLSCAASGFTFSGYGMSWVRQAPGKGLEWVATITSGGTYTYYADSVKGRFTISRDNSKNTLYLQINSLRAEDTAVYYCARSLAGNAMDYWGQGTLVTVSS
VL: DIQMTQSPSSLSASVGDRVTLTCRASQTISNYLAWYQQKPGKVPKLLIKFASTLQSGVPSRFSGSGSGSDFTLTISSLQPEDVATYYCQNGHGFPRTFGQGTKLEIKR
notes: MMP2-cleaved; IgG1

Kd [7]: 26.6 nM
B7: Cleaved Vel-IPV-hB6H12.19 (antibody, V domains shown)
VH: EVQLVESGGGLVQPGGSLRLSCAASGFTFSGYGMSWVRQAPGKGLEWVATITSGGTYTYYADSVKGRFTISRDNSKNTLYLQINSLRAEDTAVYYCARSLAGNAMDYWGQGTLVTVSS
VL: EIVMTQSPDFQSVTPKEKVTLTCRASQTISDYLHWYQQKPDQSPKLLIKFASQSISGVPSRFSGSGSGSDFTLTINSLEAEDAATYYCQNGHGFPRTFGQGTKLEIKR
notes: MMP2-cleaved; IgG1

Kd [4]: 1.3 nM
EC50 (read off the curve) [5]: ~3 nM
EC50 [6]: 55 nM
B8: hB6H12.19 (antibody, V domains shown)
VH: EVQLVESGGGLVQPGGSLRLSCAASGFTFSGYGMSWVRQAPGKGLEWVATITSGGTYTYYADSVKGRFTISRDNSKNTLYLQINSLRAEDTAVYYCARSLAGNAMDYWGQGTLVTVSS
VL: EIVMTQSPDFQSVTPKEKVTLTCRASQTISDYLHWYQQKPDQSPKLLIKFASQSISGVPSRFSGSGSGSDFTLTINSLEAEDAATYYCQNGHGFPRTFGQGTKLEIKR
notes: also called hvH5/hvK3; antibody 19 (bin B)

Kd [4]: 0.9 nM
EC50 [6]: 30 nM
B9: hB6H12.1 (antibody, V domains shown)
VH: EVQLLESGGGLVQPGGSLRLSCAASGFTFSGYGMSWVRQAPGKRLEWVATITSGGTYTYYPDSVKGRFTISRDNSKNTLYLQMNSLRAEDTAIYFCARSLAGNAMDYWGQGTLVTVSS
VL: EIVMTQSPDFQSVTPKEKVTLTCRASQTISDYLHWYQQKPDQSPKLLIKFASQSISGVPSRFSGSGSGTDFTLTINSLEAEDAAVYYCQNGHGFPRTFGQGTKLEIKR
notes: also called hvH1/hvK1; antibody 1 (bin A)

Kd [4]: 1.1 nM
EC50 [6]: 38 nM
B10: hB6H12.18 (antibody, V domains shown)
VH: EVQLVESGGGLVQPGGSLRLSCAASGFTFSGYGMSWVRQAPGKGLEWVATITSGGTYTYYADSVKGRFTISRDNSKNTLYLQINSLRAEDTAVYYCARSLAGNAMDYWGQGTLVTVSS
VL: EIVMTQSPDFQSVTPKEKVTLTCRASQTISDYLHWYQQKPDQSPKLLIKFASQSISGVPSRFSGSGSGTDFTLTINSLEAEDAATYYCQNGHGFPRTFGQGTKLEIKR
notes: also called hvH5/hvK2; antibody 18 (bin B)

Kd [8]: 2.7 nM
Kd [17]: 62.3 nM
B11: hB6H12.3 G91A (antibody, V domains shown)
VH: EVQLLESGGGLVQPGGSLRLSCAASGFTFSGYGMSWVRQAPGKRLEWVATITSGGTYTYYPDSVKGRFTISRDNSKNTLYLQMNSLRAEDTAIYFCARSLAGNAMDYWGQGTLVTVSS
VL: EIVMTQSPDFQSVTPKEKVTLTCRASQTISDYLHWYQQKPDQSPKLLIKFASQSISGVPSRFSGSGSGSDFTLTINSLEAEDAATYYCQNAHGFPRTFGQGTKLEIKR
notes: IgG1; also called hB6H12.3 (deamidation mutant); hvH1/hvK3 G91A

Kd [11]: 19.8 nM
Kd [16]: 100 nM
B12: Ab47 G91A (antibody, name in Kabat numbering, V domains shown)
VH: EVQLVESGGGLVQPGGSLRLSCAASGFTFSGYGMSWVRQAPGKGLEWVATITSGGTYTYYPDSVKGRFTISRDNAKNSLYLQMNSLRAEDTAVYYCARSLAGNAMDYWGQGTLVTVSS
VL: EIVLTQSPATLSLSPGERATLSCRASQTISDYLHWYQQKPGQAPRLLIKFASQSISGIPARFSGSGSGTDFTLTISSLEPEDFAVYYCQNAHGFPRTFGQGTKVEIKR
notes: built from the Ab47 light chain variable region with G91A; IgG1; also called Ab47 variant bearing a G91A mutation in LCDR3

Kd [4]: 1.8 nM
EC50 (read off the curve) [5]: ~4 nM
EC50 [6]: 56 nM
B13: hB6H12.20 (antibody, V domains shown)
VH: EVQLVESGGGLVQPGGSLRLSCAASGFTFSGYGMSWVRQAPGKGLEWVATITSGGTYTYYADSVKGRFTISRDNSKNTLYLQINSLRAEDTAVYYCARSLAGNAMDYWGQGTLVTVSS
VL: DIQMTQSPSSLSASVGDRVTLTCRASQTISNYLAWYQQKPGKVPKLLIKFASTLQSGVPSRFSGSGSGSDFTLTISSLQPEDVATYYCQNGHGFPRTFGQGTKLEIKR
notes: also called hvH5/hvK4; antibody 20 (bin B)

Kd [9]: 466 nM
Kd [12]: 1680 nM
Kd [13]: 1120 nM
Kd [14]: 1180 nM
B14: Ab47 bearing the A4B4 coiled coil masking domain (antibody)
VH: GKIAALKQKIAALKYKNAALKKKIAALKQGGGGGPLGVRGGGGSEVQLVESGGGLVQPGGSLRLSCAASGFTFSGYGMSWVRQAPGKGLEWVATITSGGTYTYYPDSVKGRFTISRDNAKNSLYLQMNSLRAEDTAVYYCARSLAGNAMDYWGQGTLVTVSS
VL: GEIAALEQEIAALEKENAALEWEIAALEQGGGGGPLGVRGGGGSEIVLTQSPATLSLSPGERATLSCRASQTISDYLHWYQQKPGQAPRLLIKFASQSISGIPARFSGSGSGTDFTLTISSLEPEDFAVYYCQNGHGFPRTFGQGTKVEIKR
notes: IgG1

Kd [4]: 1.2 nM
EC50 [6]: 37 nM
B15: mB6H12 (antibody, V domains shown)
VH: EVQLVESGGDLVKPGGSLKLSCAASGFTFSGYGMSWVRQTPDKRLEWVATITSGGTYTYYPDSVKGRFTISRDNAKNTLYLQIDSLKSEDTAIYFCARSLAGNAMDYWGQGTSVTVSS
VL: DIVMTQSPATLSVTPGDRVSLSCRASQTISDYLHWYQQKSHESPRLLIKFASQSISGIPSRFSGSGSGSDFTLSINSVEPEDVGVYYCQNGHGFPRTFGGGTKLEIKR
notes: Murine parental antibody; also called murine B6H12; mouse B6H12
